From patent US20240294593A1 (Genentech, published 2024)

What follows are binders tested against T1, human PD-1-His (human, UniProt Q15116 25-167, limits assumed) (assay: Octet [D00120 Figure 65H]).
T1 construct: Antigen of the Octet assays; not shown: His tag
Source text: In particular, anti-human IgG-Fc (AHC) biosensors were used to capture the test articles and dipped into multiple concentrations of PD-1.

T1 sequence (Q15116 25-167 limits assumed): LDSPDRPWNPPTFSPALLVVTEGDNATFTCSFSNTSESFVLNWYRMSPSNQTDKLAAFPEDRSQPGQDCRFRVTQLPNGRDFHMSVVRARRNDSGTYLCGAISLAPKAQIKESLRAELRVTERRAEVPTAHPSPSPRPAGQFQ

Binder | Kd [nM] | koff [s⁻¹] | kon [M⁻¹ s⁻¹]
H1_L1.76 (antibody, V domains shown, also called VL-T59S; Kabat 53) VH: EVQLVESGGGLVQPGGSLRLSCAASGFTFSSFGMHWVRQAPGKGLEWVSYISSGSSIIYYADSVKGRFTISRDNAKNSLYLQMNSLRAEDTAVYYCARGGRLVWSPDYWGQGTLVTVSS VL: DIVMTQSPDSLAVSLGERATINCKSSQSLLNSGNQKNYLTWYQQKPGQPPKLLIYWASSRESGVPDRFTGSGSGTDFTLTISSLQAEDVAVYYCQNDYSYPFTFGSGTKLEIKR | 55 | 0.00512 | 93100
H1_L1.82 (antibody, V domains shown, also called VL-T59K; Kabat 53) VH: EVQLVESGGGLVQPGGSLRLSCAASGFTFSSFGMHWVRQAPGKGLEWVSYISSGSSIIYYADSVKGRFTISRDNAKNSLYLQMNSLRAEDTAVYYCARGGRLVWSPDYWGQGTLVTVSS VL: DIVMTQSPDSLAVSLGERATINCKSSQSLLNSGNQKNYLTWYQQKPGQPPKLLIYWASKRESGVPDRFTGSGSGTDFTLTISSLQAEDVAVYYCQNDYSYPFTFGSGTKLEIKR | 52.6 | 0.00602 | 114000
H1_L1.81 (antibody, V domains shown, also called VL-T59D; Kabat 53) VH: EVQLVESGGGLVQPGGSLRLSCAASGFTFSSFGMHWVRQAPGKGLEWVSYISSGSSIIYYADSVKGRFTISRDNAKNSLYLQMNSLRAEDTAVYYCARGGRLVWSPDYWGQGTLVTVSS VL: DIVMTQSPDSLAVSLGERATINCKSSQSLLNSGNQKNYLTWYQQKPGQPPKLLIYWASDRESGVPDRFTGSGSGTDFTLTISSLQAEDVAVYYCQNDYSYPFTFGSGTKLEIKR | 51.4 | 0.00606 | 118000
H1_L1.78 (antibody, V domains shown, also called VL-T59I; Kabat 53) VH: EVQLVESGGGLVQPGGSLRLSCAASGFTFSSFGMHWVRQAPGKGLEWVSYISSGSSIIYYADSVKGRFTISRDNAKNSLYLQMNSLRAEDTAVYYCARGGRLVWSPDYWGQGTLVTVSS VL: DIVMTQSPDSLAVSLGERATINCKSSQSLLNSGNQKNYLTWYQQKPGQPPKLLIYWASIRESGVPDRFTGSGSGTDFTLTISSLQAEDVAVYYCQNDYSYPFTFGSGTKLEIKR | 56.8 | 0.00581 | 102000
H1_L1.79 (antibody, V domains shown, also called VL-T59Q; Kabat 53) VH: EVQLVESGGGLVQPGGSLRLSCAASGFTFSSFGMHWVRQAPGKGLEWVSYISSGSSIIYYADSVKGRFTISRDNAKNSLYLQMNSLRAEDTAVYYCARGGRLVWSPDYWGQGTLVTVSS VL: DIVMTQSPDSLAVSLGERATINCKSSQSLLNSGNQKNYLTWYQQKPGQPPKLLIYWASQRESGVPDRFTGSGSGTDFTLTISSLQAEDVAVYYCQNDYSYPFTFGSGTKLEIKR | 55.5 | 0.00731 | 132000

Second part, the binder after the results:

Kd [nM] | koff [s⁻¹] | kon [M⁻¹ s⁻¹] | Binder
45.3 | 0.00496 | 110000 | H1_L1.75 (antibody, V domains shown, also called VL-T59V; Kabat 53) VH: EVQLVESGGGLVQPGGSLRLSCAASGFTFSSFGMHWVRQAPGKGLEWVSYISSGSSIIYYADSVKGRFTISRDNAKNSLYLQMNSLRAEDTAVYYCARGGRLVWSPDYWGQGTLVTVSS VL: DIVMTQSPDSLAVSLGERATINCKSSQSLLNSGNQKNYLTWYQQKPGQPPKLLIYWASVRESGVPDRFTGSGSGTDFTLTISSLQAEDVAVYYCQNDYSYPFTFGSGTKLEIKR
50.3 | 0.00535 | 106000 | H1_L1.77 (antibody, V domains shown, also called VL-T59A; Kabat 53) VH: EVQLVESGGGLVQPGGSLRLSCAASGFTFSSFGMHWVRQAPGKGLEWVSYISSGSSIIYYADSVKGRFTISRDNAKNSLYLQMNSLRAEDTAVYYCARGGRLVWSPDYWGQGTLVTVSS VL: DIVMTQSPDSLAVSLGERATINCKSSQSLLNSGNQKNYLTWYQQKPGQPPKLLIYWASARESGVPDRFTGSGSGTDFTLTISSLQAEDVAVYYCQNDYSYPFTFGSGTKLEIKR
51 | 0.00578 | 113000 | H1_L1.80 (antibody, V domains shown, also called VL-T59H; Kabat 53) VH: EVQLVESGGGLVQPGGSLRLSCAASGFTFSSFGMHWVRQAPGKGLEWVSYISSGSSIIYYADSVKGRFTISRDNAKNSLYLQMNSLRAEDTAVYYCARGGRLVWSPDYWGQGTLVTVSS VL: DIVMTQSPDSLAVSLGERATINCKSSQSLLNSGNQKNYLTWYQQKPGQPPKLLIYWASHRESGVPDRFTGSGSGTDFTLTISSLQAEDVAVYYCQNDYSYPFTFGSGTKLEIKR
